We go through one protein from PMC12018189, “ATP synthesis of Enterococcus hirae V-ATPase driven by sodium motive force” (The Journal of Biological Chemistry, 2025).

Substrate in series [1]: Nc1ncnc2c1ncn2[C@@H]1O[C@H](COP(=O)(O)OP(=O)(O)O)[C@@H](O)[C@H]1O
In words: luciferin/luciferase luminescence assay of ATP synthesis, proteoliposomes. It counts as biochemical, Enterococcus hirae. To be noted: ATP synthesis direction, 74 mM Pi, 5 mM MgCl2, pH 7.0, 25 °C, smf 269.3 mV (Δψ 154.7 mV, ΔpNa 114.6 mV). The source says: luciferin/luciferase luminescence assay of ATP synthesis, proteoliposomes on EhVoV1 (Enterococcus hirae V-ATPase)

Substrate in the series “purified protein”: O=P(O)(O)O
In words: purified protein. The following applies: ATP synthesis direction, 0.5 mM ADP, 5 mM MgCl2, pH 7.0, 25 °C, smf 269.3 mV (Δψ 154.7 mV, ΔpNa 114.6 mV).

What is called Km is the concentration of substrate that gives half-maximal velocity. Broadly, the kcat is the number of substrate molecules converted per active site and unit of time at saturation.

B1: EhVoV1 (Enterococcus hirae V-ATPase) (Enterococcus hirae ATCC 9790) (protein)
chain 1: MQIGKIIKVSGPLVMAENMSEASIQDMCLVGDLGVIGEIIEMRQDVASIQVYEETSGIGPGEPVRSTGEALSVELGPGIISQMFDGIQRPLDTFMEVTQSNFLGRGVQLPALDHEKQWWFEATIEEGTEVSAGDIIGYVDETKIIQHKIMVPNGIKGTVQKIESGSFTIDDPICVIETEQGLKELTMMQKWPVRRGRPIKQKLNPDVPMITGQRVIDTFFPVTKGGAAAVPGPFGAGKTVVQHQIAKWSDVDLVVYVGCGERGNEMTDVVNEFPELIDPNTGESLMERTVLIANTSNMPVAAREASIYTGITIAEYFRDMGYDVAIMADSTSRWAEALREMSGRLEEMPGDEGYPAYLGSRLAEYYERSGRVIALGSDQREGSITAISAVSPSGGDISEPVTQNTLRVVKVFWGLDSSLAQKRHFPSINWIQSYSLYSTEVGRYMDQILQQDWSDMVTEGMRILQEEEQLNEIVRLVGIDSLSDNDRLTLEVAKSIREDYLQQNAFDDVDTFTSREKQFNMLKVILTFGKEARKALSLGAYFNEIMEGTVAVRERISRSKYIPEEELAKISSINEEIKETIQLIVSEGGMTDD
chain 2: MIKEYRTIKEVVGPLMAVEKVSGVKYEELIEVRMQNGEIRRGQVLEVQEDKAMVQIFEGTSGINLKNSSVRFLGHPLQLGVSEDMIGRVFDGLGRPKDNGPEILPEKYLDINGEVINPIARDYPDEFIQTGISAIDHLNTLVRGQKLPVFSGSGLPHKELAAQIARQATVLDSSDDFAVVFAAIGITFEEAEFFMEDFRQTGAIDRSVMFMNLANDPAIERIATPRMALTAAEYLAYEKGMHVLVIMTDMTNYAEALREISAARREVPGRRGYPGYLYTNLATLFERAGRIRGLKGSVTQIPILTMPEDDKTHPIPDLTGYITEGQIILTRELYKSGIQPPIDVLPSLSRLKDKGTGAGKTREDHAATMNQLFAAYAQGKQAKELAVVLGESALSDIDKIYAKFAERFENEYVNQGFYTNRTITETLDLGWELLAMLPRTELKRIKDDLLDKYLPEGK
notes: whole VoV1 complex, His tags on c-subunits, expressed in E. coli C41(DE3), DDM-solubilised, Ni-NTA and size exclusion, reconstituted into soybean phosphatidylcholine liposomes; with V-type sodium ATPase subunit D; V-type sodium ATPase subunit G; V-type sodium ATPase subunit E; V-type sodium ATPase subunit F; V-type sodium ATPase subunit C; V-type sodium ATPase subunit I; V-type sodium ATPase …
B1: in series [1], the Michaelis constant (Km) worked out at 21 ± 2 µM and the kcat amounted to 4.7 s⁻¹. In addition, in the series “purified protein”, the Km was 2100 ± 200 µM and the catalytic constant (kcat) was 4.7 s⁻¹.
